The stoichiometry N is a count of units in the complex or per binding partner.

Stoichiometry N data for two substances are collected here from PMC8050884.

The target of test [1] is SARS-CoV-2 spike trimer (aa 1-1208, furin site mutated, K986P/V987P) fused to human resistin (aa 23-108), FLAG-(His)6 (SARS-CoV-2 | human) (UniProt P0DTC2). The experiment in a line: SEC-MALS; SEC-UPLC in PBS + 0.02% Tween-20 on Acquity BEH450 column coupled to MALS detector and refractometer; data not shown. For orientation: Size exclusion chromatography separates by hydrodynamic size, large species first.

Test [2] addresses soluble trimeric SARS-CoV-2 spike protein ectodomain (residues 1-1211) with phage foldon trimerization motif, 6xHis tag and AviTag (SARS-CoV-2 | not stated) (UniProt P0DTC2). Nature of the test: negative stain electron microscopy.

Regarding “SARS-CoV-2 spike trimer (aa 1-1208, furin site mutated, K986P/V987P) fused to human resistin (aa 23-108), FLAG-(His)6 (from UniProt P0DTC2;Q9HD89)”, in test [1], the stoichiometry N was determined as 3.
With “soluble trimeric SARS-CoV-2 spike protein ectodomain (residues 1-1211) with phage foldon trimerization motif, 6xHis tag and AviTag (from UniProt P0DTC2 14-1211)”, the stoichiometry N in test [2] came to 3.
